Target: T1, CasX 119 (in cells) (Planctomycetes)
T1 chain: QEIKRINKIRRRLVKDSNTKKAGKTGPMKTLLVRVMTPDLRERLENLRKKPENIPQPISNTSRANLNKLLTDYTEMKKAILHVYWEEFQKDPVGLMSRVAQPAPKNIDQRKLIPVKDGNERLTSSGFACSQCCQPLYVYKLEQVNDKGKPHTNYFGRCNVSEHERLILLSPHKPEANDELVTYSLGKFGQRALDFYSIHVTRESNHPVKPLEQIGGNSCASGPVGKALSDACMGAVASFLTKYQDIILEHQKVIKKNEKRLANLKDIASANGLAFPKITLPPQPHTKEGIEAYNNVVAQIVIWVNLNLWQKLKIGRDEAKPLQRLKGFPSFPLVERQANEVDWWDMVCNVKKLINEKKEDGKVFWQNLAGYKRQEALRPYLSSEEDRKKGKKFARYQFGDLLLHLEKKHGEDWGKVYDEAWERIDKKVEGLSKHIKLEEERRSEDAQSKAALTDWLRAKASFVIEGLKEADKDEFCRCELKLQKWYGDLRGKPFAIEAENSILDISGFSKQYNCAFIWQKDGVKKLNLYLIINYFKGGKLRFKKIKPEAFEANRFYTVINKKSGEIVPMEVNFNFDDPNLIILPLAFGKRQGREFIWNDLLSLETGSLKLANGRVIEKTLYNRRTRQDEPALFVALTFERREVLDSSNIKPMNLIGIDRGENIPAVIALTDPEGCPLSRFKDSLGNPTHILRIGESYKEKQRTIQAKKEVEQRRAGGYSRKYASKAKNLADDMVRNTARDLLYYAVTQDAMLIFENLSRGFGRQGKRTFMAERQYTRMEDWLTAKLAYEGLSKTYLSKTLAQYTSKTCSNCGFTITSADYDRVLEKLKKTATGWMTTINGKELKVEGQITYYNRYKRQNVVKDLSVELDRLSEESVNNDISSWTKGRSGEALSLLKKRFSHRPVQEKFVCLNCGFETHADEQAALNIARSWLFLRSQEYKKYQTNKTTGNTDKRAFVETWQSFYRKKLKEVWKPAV
Assay: cell_activity; TTC PAM; SOD1-GFP reporter, GFP disruption
Conditions: tags: NLS
Source text: A SOD1-GFP reporter line was constructed by knocking in GFP at the endogenous human SOD1 locus, shown schematically in FIG. 19. A reporter (e.g., GFP reporter) coupled to a gRNA targeting sequence, complementary to the gRNA spacer, is integrated into a reporter cell line. Cells are transformed or transfected with a CasX protein and/or sgRNA variant, with the spacer motif of the sgRNA complementary to and targeting the gRNA target sequence of the reporter. The ability of the CasX:sgRNA ribonucleoprotein complex to cleave the target nucleic acid sequence is assayed by FACS. Cells that lose reporter expression indicate occurrence of CasX:sgRNA ribonucleoprotein complex-mediated cleavage and indel formation. The reporting system is based on reduced GFP fluorescence upon successful modifying (editing) of the SOD1 locus, detected by flow cytometry as shown in FIG. 20.
CasX 2 (SEQ ID NO:2) and guide 2 (SEQ ID NO:5) (labeled here as StX) and CasX 119 molecule and rRNA guide 64 (119.64) (labeled here as EvoXI) with SOD1 targeting spacers (2, with an encoding sequence of […] (SEQ ID NO: 310), and spacer 4, with an encoding sequence of […] (SEQ ID NO: 366)), were lipofected into SOD1-GFP reporter cells, selected for successful lipofection using puromycin, and later assayed for GFP disruption via FACS.

B1: sgRNA 64 SOD1 spacer 2 ; SOD1 exon 2 site (spacer 2) (ssRNA ; dsDNA)
RNA: GUACUGGCGCCUUUAUCUCAUUACUUUGAGAGCCAUCACCAGCGACUAUGUCGUAUGGGUAAAGCGCUUACGGACUUCGGUCCGUAAGAAGCAUCAAAGAUGUUCAUGAGUUUGGAGAU
DNA 1: ATGTTCATGAGTTTGGAGAT
DNA 2: ATCTCCAAACTCATGAACAT
binding signal: 35 fold vs CasX2 guide 2
